Tests used:
[1] = test system: HeLa Kyoto; test: solubility in G1/S (NP-40 vs SDS abundance) (log2 ratio); higher = more soluble; settings: cell cycle stage: G1/S
[2] = test system: HeLa Kyoto; test: solubility change mitosis vs G1/S (difference of NP-40 vs SDS log2 ratios) (log2 ratio difference); higher = more soluble in mitosis
[3] = test system: HeLa Kyoto; test: thermal stability score vs G1/S (z-score of summed log2 fold changes over temperatures); higher = more thermally stable than in G1/S
[4] = test system: HeLa Kyoto; test: melting temperature (median over replicates), in situ; higher = more thermally stable
[5] = cell cycle stage: early G1 (4.5 h after nocodazole release)
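For melting temperature (median over replicates), in situ in this document: HeLa Kyoto cells synchronized by double thymidine or nocodazole block, proteins quantified by TMT10plex mass spectrometry, three independent biological replicates.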
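For solubility change mitosis vs G1/S (difference of NP-40 vs SDS log2 ratios) in this document: synchronized HeLa Kyoto cells (double thymidine block for G1/S, nocodazole release for mitosis), protein amounts in NP-40 versus SDS lysates quantified by mass spectrometry, three biological replicates.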
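For solubility in G1/S (NP-40 vs SDS abundance) in this document: HeLa Kyoto cells arrested at G1/S by double thymidine block, proteins quantified by TMT10plex mass spectrometry in mild NP-40 versus SDS extracts, three biological replicates.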
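For thermal stability score vs G1/S (z-score of summed log2 fold changes over temperatures) in this document: synchronized HeLa Kyoto cells, proteins quantified by TMT10plex mass spectrometry, three biological replicates, mitosis taken 0.5 h after nocodazole release, G1/S directly after double thymidine block.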

## MANLLKTVVTGCSCPLLSNLGSCKGLRVKKDFLRTFYTHQELWCKAPVKPGIPYKQLTVGVPKEIFQNEKRVALSPAGVQNLVKQGFNVVVESGAGEASKFSDDHYRVAGAQIQGAKEVLASDLVVKVRAPMVNPTLGVHEADLLKTSGTLISFIYPAQNPELLNKLSQRKTTVLAMDQVPRVTIAQGYDALSSMANIAGYKAVVLAANHFGRFFTGQITAAGKVPPAKILIVGGGVAGLASAGAAKSMGAIVRGFDTRAAALEQFKSLGAEPLEVDLKESGEGQGGYAKEMSKEFIEAEMKLFAQQCKEVDILISTALIPGKKAPVLFNKEMIESMKEGSVVVDLAAEAGGNFETTKPGELYIHKGITHIGYTDLPSRMATQASTLYSNNITKLLKAISPDKDNFYFDVKDDFDFGTMGHVIRGTVVMKDGKVIFPAPTPKNIPQGAPVKQKTVAELEAEKAATITPFRKTMSTASAYTAGLTGILGLGIAAPNLAFSQMVTTFGLAGIVGYHTVWGVTPALHSPLMSVTNAISGLTAVGGLALMGGHLYPSTTSQGLAALAAFISSVNIAGGFLVTQRMLDMFKRPTDPPEYNYLYLLPAGTFVGGYLAALYSGYNIEQIMYLGSGLCCVGALAGLSTQGTARLGNALGMIGVAGGLAATLGVLKPGPELLAQMSGAMALGGTIGLTIAKRIQISDLPQLVAAFHSLVGLAAVLTCIAEYIIEYPHFATDAAANLTKIVAYLGTYIGGVTFSGSLIAYGKLQGLLKSAPLLLPGRHLLNAGLLAASVGGIIPFMVDPSFTTGITCLGSVSALSAVMGVTLTAAIGGADMPVVITVLNSYSGWALCAEGFLLNNNLLTIVGALIGSSGAILSYIMCVAMNRSLANVILGGYGTTSTAGGKPMEISGTHTEINLDNAIDMIREANSIIITPGYGLCAAKAQYPIADLVKMLTEQGKKVRFGIHPVAGRMPGQLNVLLAEAGVPYDIVLEMDEINHDFPDTDLVLVIGANDTVNSAAQEDPNSIIAGMPVLEVWKSKQVIVMKRSLGVGYAAVDNPIFYKPNTAMLLGDAKKTCDALQAKVRESYQK [NNT]
[1]
  solubility in G1/S (log2): 0.11
[2]
  solubility change mitosis (log2): -0.0884
[3]; [5]
  thermal stability score: -1.09
[3]; cell cycle stage: mitosis
  thermal stability score: -1.47
[4]; cell cycle stage: G1/S
  melting temperature: 53.4 °C
[4]; cell cycle stage: mitosis
  melting temperature: 53.4 °C

## MPAGPVQAVPPPPPVPTEPKQPTEEEASSKEDSAPSKPVVGIIYPPPEVRNIVDKTASFVARNGPEFEARIRQNEINNPKFNFLNPNDPYHAYYRHKVSEFKEGKAQEPSAAIPKVMQQQQQTTQQQLPQKVQAQVIQETIVPKEPPPEFEFIADPPSISAFDLDVVKLTAQFVARNGRQFLTQLMQKEQRNYQFDFLRPQHSLFNYFTKLVEQYTKILIPPKGLFSKLKKEAENPREVLDQVCYRVEWAKFQERERKKEEEEKEKERVAYAQIDWHDFVVVETVDFQPNEQGNFPPPTTPEELGARILIQERYEKFGESEEVEMEVESDEEDDKQEKAEEPPSQLDQDTQVQDMDEGSDDEEEGQKVPPPPETPMPPPLPPTPDQVIVRKDYDPKASKPLPPAPAPDEYLVSPITGEKIPASKMQEHMRIGLLDPRWLEQRDRSIREKQSDDEVYAPGLDIESSLKQLAERRTDIFGVEETAIGKKIGEEEIQKPEEKVTWDGHSGSMARTQQAAQANITLQEQIEAIHKAKGLVPEDDTKEKIGPSKPNEIPQQPPPPSSATNIPSSAPPITSVPRPPTMPPPVRTTVVSAVPVMPRPPMASVVRLPPGSVIAPMPPIIHAPRINVVPMPPSAPPIMAPRPPPMIVPTAFVPAPPVAPVPAPAPMPPVHPPPPMEDEPTSKKLKTEDSLMPEEEFLRRNKGPVSIKVQVPNMQDKTEWKLNGQVLVFTLPLTDQVSVIKVKIHEATGMPAGKQKLQYEGIFIKDSNSLAYYNMANGAVIHLALKERGGRKK [SF3A1]
[1]
  solubility in G1/S (log2): -0.0723
[2]
  solubility change mitosis (log2): 0.18
[3]; [5]
  thermal stability score: -0.95
[3]; cell cycle stage: mitosis
  thermal stability score: 1.92
[4]; cell cycle stage: G1/S
  melting temperature: 49.8 °C
[4]; cell cycle stage: mitosis
  melting temperature: 50.2 °C

## HADHA
[1]
  solubility in G1/S (log2): 0.196
[2]
  solubility change mitosis (log2): -0.133
[3]; [5]
  thermal stability score: -1.31
[3]; cell cycle stage: mitosis
  thermal stability score: 0.108
[4]; cell cycle stage: G1/S
  melting temperature: 50.8 °C
[4]; cell cycle stage: mitosis
  melting temperature: 50.9 °C
